According to paper PMC3410491:

Legend:
[1] = biological target: Chara myosin heavy chain (Chara corallina (Chara australis) (endogenous in internodal cells)); assay: SEC; partially purified Chara myosin on Superdex 200HR in 50 mM Tris-HCl pH 8.0, 2 mM MgCl2, 1 mM EGTA, 4 mM ATP, 1 mM DTT; peak fraction No. 20 concentrated and run on SDS-PAGE, stained with coomassie brilliant blue; molar ratios roughly estimated
[2] = biological target: Chara myosin heavy chain (Chara corallina (Chara australis) (endogenous in internodal cells))
[3] = biological target: Chara myosin heavy chain (Chara corallina (Chara australis) (endogenous in internodal cells)); remark: listed apart in the source

Row | Substance | stoichiometry N (molar ratio to the heavy chain) [1] | actin activated ATPase of column purified Chara myosin; increase on adding both Ca++ and calmodulin [2] | actin activated ATPase of column purified Chara myosin; increase on adding calmodulin [2] | sliding velocity of F-actin on Chara myosin in the in vitro motility assay; increase over the standard buffer on adding 0.1 mM Ca++ and 0.1 mg/ml calmodulin; reversible on washing out [3] | sliding velocity of F-actin on Chara myosin in the in vitro motility assay; increase over the standard buffer on adding 0.1 mg/ml calmodulin [3]
1 | 18 kDa polypeptide of Chara myosin (natural protein) | 2.5 | – | – | – | –
2 | 20 kDa polypeptide of Chara myosin (natural protein) | 0.7 | – | – | – | –
3 | bovine calmodulin (from UniProt P62157 1-149) (natural protein) | – | 91% | 24% | 35% | 24%
